Assay [1] deals with T1, hRpn10^305–377 (RAZUL, Rpn10 AZUL binding domain) (human, UniProt P55036 305-377).
T1 sequence (looked up): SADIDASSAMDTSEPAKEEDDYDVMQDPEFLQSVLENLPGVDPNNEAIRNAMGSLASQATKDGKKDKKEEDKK
Description: ITC.

The target of the next assay is T2, GST-hRpn10^305–377 (human, UniProt P55036 305-377).
T2 sequence (looked up): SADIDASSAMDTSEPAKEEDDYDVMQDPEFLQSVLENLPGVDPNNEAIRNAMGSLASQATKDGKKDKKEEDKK
Description: SPR. A general note: Surface plasmon resonance follows binding to a sensor surface in real time, without labels.

Another assay addresses ubiquitin (UniProt P0CG48 1-76). Description: NMR titration.

B1: E6AP AZUL domain, E6AP[24–87] (domain or fragment, human, UniProt Q05086 24-87, looked up)
chain: MKRAAAKHLIERYYHQLTEGCGNEACTNEFCASCPTFLRMDNNAAAIKALELYKINAKLCDPHP
In the case of B1, the Kd (in general, a measure of binding affinity in units of concentration) was determined as 11.6 nM in assay [1] and 8.1 nM with GST-hRpn10^305–377.

B2: His-hRpn10^196–377 (domain or fragment)
chain: MLGLGASDFEFGVDPSADPELALALRVSMEEQRQRQEEEARRAAAASAAEAGIATTGTEDSDDALLKMTISQQEFGRTGLPDLSSMTEEEQIAYAMQMSLQGAEFGQAESADIDASSAMDTSEPAKEEDDYDVMQDPEFLQSVLENLPGVDPNNEAIRNAMGSLASQATKDGKKDKKEEDKK
For B2, the binding result with ubiquitin is “binds”.

The values above are taken from paper doi:10.1101/797027 (bioRxiv, 2019).
